These results are taken from the supplement of paper PMC10724198.

± gives the standard deviation of the averaged measurements.
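Also: PSI is a weighted mean of sequencing reads over stability bins, variants kept only with over 10 reads, mCherry proximal and sfGFP distal, peptide attached via GGGS linker.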

The test system of the series is Saccharomyces cerevisiae. The series can be described thus: protein stability index of tFT-peptide fusion (C-terminal peptide) (PSI (0-1 scale)); higher = more stable (slower turnover). The note with it: genetic background: wild type; temperature: 30 C. The protocol:
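Multiplexed protein stability (MPS) profiling in S. cerevisiae. Random 12-aa peptides (tFT-X12 library) are fused to the C-terminus of a sfGFP-mCherry tandem fluorescent timer, after mCherry and a GGGS linker. Cells are FACS-sorted into 8 mCherry/sfGFP bins and deep-sequenced. The protein stability index (PSI) is the read-weighted bin average, scaled from 0 (unstable) to 1 (stable). Only peptides with >10 reads are reported; cells were grown at 30 °C in SC-His with glucose.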
Sequence DEANFHGCYYGV displayed a protein stability index of 0.647 ± 0.041.

In turn, DESRVYLSIALL displayed a protein stability index of 0.623 ± 0.035.

For the sequence DFLSLPPISPLL, the protein stability index is 0.787 ± 0.15.

DFYSLAWHFWFL registered a protein stability index of 0.69 ± 0.073.

For DGCGFIGLSLLE, the protein stability index turned out to be 0.731 ± 0.079.

DGCSWRSGLVWL returned a protein stability index of 0.69506 ± 0.00062.

On to DGELFPDEPFYL, for which the protein stability index stood at 0.801 ± 0.049.

DGGVGRALEHGE displayed a protein stability index of 0.652 ± 0.0083.

DGLQNACVFMSG: the protein stability index turned out to be 0.6906 ± 0.0025.

As to DGPALWPRSVVD, the protein stability index came to 0.684 ± 0.1.

Sequence DGQNPVAFGSHG showed a protein stability index of 0.691 ± 0.057.

Consider DGVRCCTKWTCA, for which the protein stability index turned out to be 0.679 ± 0.013.

Regarding DGWSEAGQGGKG, the protein stability index was 0.679 ± 0.034.

In the case of DHKKNKIKKKKE, the protein stability index worked out at 0.685 ± 0.097.

As for DHLVLSGPPPPV, the protein stability index was found to be 0.733 ± 0.056.

Consider DHRELPRSRIGT, for which the protein stability index came to 0.673 ± 0.015.

Turning to DICFTPGVVNAS, the protein stability index was found to be 0.6587 ± 0.0038.

On to DIEKRNKRGVCV, for which the protein stability index amounted to 0.714 ± 0.058.

DIKAISVKYTIQ gave a protein stability index of 0.6127 ± 0.0056.

As to DILACAPCRRGP, the protein stability index came to 0.704 ± 0.022.

Sequence DKGWRTRKVKDE gave a protein stability index of 0.632 ± 0.03.

Consider DKPRKVLPNENS, for which the protein stability index worked out at 0.6871 ± 0.0017.

DKRRSMSGGNMD: the protein stability index came to 0.68 ± 0.024.

With DKSYKTYSVKGQ, the protein stability index amounted to 0.6707 ± 0.0018.

Regarding DLARSLVQSLSG, the protein stability index was found to be 0.675 ± 0.017.

With DLEDPAETPNIF, the protein stability index came out at 0.72 ± 0.033.

DLGWGRWYVVVG showed a protein stability index of 0.678 ± 0.0083.

DLHFAVVFPISR showed a protein stability index of 0.733 ± 0.013.

DLKIKKNDKKKK came in with a protein stability index of 0.658 ± 0.0086.

Regarding DLLPGAGRDSRL, the protein stability index is 0.775 ± 0.21.

In the case of DLSRSPAPPAPL, the protein stability index is 0.6706 ± 0.0014.

In turn, DLVQFATEILMI registered a protein stability index of 0.612 ± 0.0064.

As to DLVSVVGRGIVL, the protein stability index is 0.675 ± 0.026.

On to DLYVADNCPNSP, for which the protein stability index was 0.662 ± 0.1.

Consider DMAPNSQKGRAL, for which the protein stability index was determined as 0.668 ± 0.028.

As for DPAIHPNYKVAG, the protein stability index stood at 0.701 ± 0.053.

DPHINARERTPL yielded a protein stability index of 0.814 ± 0.2.

Regarding DPPHPPPSPLPA, the protein stability index was determined as 0.699 ± 0.02.

In turn, DPRVLPPPPRLP gave a protein stability index of 0.637 ± 0.02.

As for DPTPLKSLVTRP, the protein stability index was 0.64 ± 0.04.

DPTVIKNQTWFG showed a protein stability index of 0.722 ± 0.05.

As to DQGMSDVYPDCW, the protein stability index came out at 0.662 ± 0.011.

As for DQSYPTPPSRID, the protein stability index turned out to be 0.721 ± 0.01.

DQTKMKKIAKVE had a protein stability index of 0.655 ± 0.044.

In the case of DRASLAGPRSLP, the protein stability index came to 0.692 ± 0.032.

Take DRNKINYYKGGI: the protein stability index came out at 0.694 ± 0.031.

The sequence DRPSTNPISNVG returned a protein stability index of 0.699 ± 0.015.

In the case of DRPYTEILEFRL, the protein stability index is 0.834 ± 0.14.

Sequence DRTITPSSVISL registered a protein stability index of 0.705 ± 0.047.

DRVGGDWMERGG came in with a protein stability index of 0.719 ± 0.036.

Take DRVLRGAIWVSV: the protein stability index was 0.571 ± 0.045.

Sequence DSFAIFFDWPAC had a protein stability index of 0.695 ± 0.0092.

DSFPAGVLVQSK registered a protein stability index of 0.664 ± 0.017.

Sequence DSGVGLARSARG gave a protein stability index of 0.678 ± 0.018.

DSHEEGVSVAPA had a protein stability index of 0.749 ± 0.034.

Consider DSSPGSHPPHRG, for which the protein stability index was 0.736 ± 0.053.

With DSSPSPYPRPPP, the protein stability index worked out at 0.729 ± 0.054.

In turn, DSVGGVLGRGAR yielded a protein stability index of 0.633 ± 0.022.

For DSVYYVYRSTRV, the protein stability index was determined as 0.679 ± 0.044.

As for DSWMKRPNKGQE, the protein stability index came to 0.698 ± 0.058.

The sequence DSYELGICCSSS returned a protein stability index of 0.6678 ± 0.0019.

Turning to DTPIGMPLNVTR, the protein stability index was determined as 0.691 ± 0.061.

Sequence DVFCRPRCFRRG registered a protein stability index of 0.686 ± 0.041.

The sequence DVGGRGAGGGSA yielded a protein stability index of 0.672 ± 0.0076.
